The target of this data set is T1, human parathyroid hormone, P01270.
T1 chain: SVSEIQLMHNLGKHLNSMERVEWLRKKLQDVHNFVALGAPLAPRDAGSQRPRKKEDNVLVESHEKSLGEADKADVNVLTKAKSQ

Results on 1 protein are retold here after US20050239074.

B1: Hansenula polymorpha yapsin1 (protein)
chain: DPQFVKLEASVLRGSTYKDSQKGAKPFMLEKRADDGSVTMELQNAQSFYQVEIEIGSDKQKVGVLIDTGSSDLWVMNSNNSYCSSSSTKKLKRDGPADALQKGRDLSDLYNFNSPNEDNNAKGFLGGWGDLTTVETATQDETQTALAAQATVDCSLYGTFNPSTSNSFHNNGTTFEISYADRTFARGTWGYDDVTFNGVTVNDLSLAVADETDSSTGVFGIGLRELETTYSGGGPQHYIYDNLPFKMVDQGLINRAAYSVYLNSTESSTASILFGAVDQSKYTGSLGLLPIINTAASYGYQKPLRLQITLSAITVSDSRGQQASIGSGAAAALLDTGTTLTYAPSEIVEKLAETLGFDYSSSVGAYVARCRDVDSYAVNFDFQGKVIEAPLSSFLIALQTNSGEVSSYCALGIFSSGDESFTLGDTFLRNAYFVADLEGYQIAIANVNLNPGAEQIEVISGNSIPSASSVSDYSNTWGASATALDTDRPTTLGSVTAVGDERVTSTKKVSSVKTSTSSGSGSTSESSTSSSHSSNGPRTVGFSLCAVLCAFLISILVV
As for B1, the “degradation level of hPTH by the yapsin activity (culture supernatant incubated with hPTH for 2, 4 and 6 hours at 37 C, SDS-polyacrylamide gel)” value is given as “in the culture fluid of the wild type, it was already hard to observe hPTH remaining in the culture supernatant after 2 hour cultivation, while in the culture supernatant of hpyps1Δ mutant strain, a substantial amount of hPTH was observed”.
